This note sets out measurements from patent US20260062463A1 (KANGYUAN BIOMEDICAL TECH DALIAN, published 2026).

A word on the Kd: it is the concentration at which binding is half-saturated. A lower Kd goes with a tighter complex. For orientation: koff means the first-order rate constant of dissociation. The kon is the second-order rate constant of association. Lower therefore signals slower complex formation.

Experiment [1] concerns the target T1, AAV8 (adeno-associated virus 8, Assembled 60-mer capsid of VP1/VP2/VP3 (nested products of one cap gene), amine-coupled to a CM5 chip; the letters give one VP1 subunit only.).
T1 construct: also called adeno-associated virus serotype 8
T1 chain: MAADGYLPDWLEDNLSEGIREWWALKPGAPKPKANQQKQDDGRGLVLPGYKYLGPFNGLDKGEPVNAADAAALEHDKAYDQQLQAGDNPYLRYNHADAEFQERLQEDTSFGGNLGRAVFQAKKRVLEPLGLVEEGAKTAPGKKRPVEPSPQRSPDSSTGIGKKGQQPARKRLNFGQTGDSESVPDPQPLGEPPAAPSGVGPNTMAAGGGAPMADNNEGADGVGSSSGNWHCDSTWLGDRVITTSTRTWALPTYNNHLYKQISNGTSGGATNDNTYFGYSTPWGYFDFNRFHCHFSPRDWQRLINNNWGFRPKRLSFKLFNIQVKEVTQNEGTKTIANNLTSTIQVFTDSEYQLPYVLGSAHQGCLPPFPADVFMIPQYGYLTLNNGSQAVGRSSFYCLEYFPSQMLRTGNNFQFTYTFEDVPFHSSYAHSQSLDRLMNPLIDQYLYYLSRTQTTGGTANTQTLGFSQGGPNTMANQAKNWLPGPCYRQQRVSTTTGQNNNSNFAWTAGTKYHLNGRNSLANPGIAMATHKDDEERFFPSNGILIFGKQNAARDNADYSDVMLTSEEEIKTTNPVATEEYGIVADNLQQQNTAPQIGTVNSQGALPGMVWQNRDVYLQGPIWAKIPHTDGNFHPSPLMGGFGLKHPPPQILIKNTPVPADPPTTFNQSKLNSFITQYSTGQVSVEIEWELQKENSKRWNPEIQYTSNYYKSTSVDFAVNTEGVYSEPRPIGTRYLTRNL
The experiment can be described thus: SPR, AAV amine-coupled to CM5 chip. In general terms: Surface plasmon resonance follows binding to a sensor surface in real time, without labels.

Another experiment addresses T2, AAV9 (adeno-associated virus 9, Assembled 60-mer capsid of VP1/VP2/VP3 (nested products of one cap gene), amine-coupled to a CM5 chip; the letters give one VP1 subunit only.).
T2 construct: also called adeno-associated virus serotype 9
Description: SPR, AAV amine-coupled to CM5 chip.

A further experiment deals with T3, AAV5 (adeno-associated virus 5, Assembled 60-mer capsid of VP1/VP2/VP3 (nested products of one cap gene), amine-coupled to a CM5 chip; the letters give one VP1 subunit only.).
T3 construct: also called adeno-associated virus serotype 5
Description: SPR, AAV amine-coupled to CM5 chip.

Experiment [2] concerns the target T4, AAV8 (adeno-associated virus 8).
T4 construct: also called adeno-associated virus serotype 8
Description: SPR, AAV on CM5 chip.
Description: AAV was amine-coupled to a CM5 sensor chip at a density of 500-800 response units (RU). Nanobodies were injected at seven concentrations (1-100 nM) with a flow rate of 45 μL/min, and chip regeneration was performed using glycine-HCl (pH 1.5).

B1: A4-D5 (other)
chain: VQLQESGGGLVQPGGSLRLSCVASGSSFSINTMGWYRRAPGKQRELVATVTRDGSTNYANSVKGRFTISRDNAKNTVYLQMNSLRPEDTAVYYCHVDEVRQSSWTTSNLWGQGTQVTVSSGGGGSGGGGSGGGGSVQLQESGGGLVQPGGSLRLSCVASGSSFSINTMGWYRRAPGKQRELVATVTRDGSTNYANSVKGRFTISRDNAKNTVYLQMNSLRPEDTAVYYCHVDEVRQSSWTTSNLWGQGTQVTVSSGGGGSGGGGSGGGGSVQLQESGGGLVQPGGSLRLSCVASGSSFSINTMGWYRQAPGKQRELVATVTRDGSTNYANSVKGRFTISRDNAKNTVYLQMNSLRPEDTAVYYCHVDEVRQSSWTTSNLWGQGTQVTVSSGGGGSGGGGSGGGGSVQLQESGGGLVQPGGSLRLSCVASGSSFSINTMGWYRRAPGKQRELVATVTRDGSTNYANSVKGRFTISRDNAKNTVYLQMNSLRPEDTAVYYCHVDEVRQSSWTTSNLWGQGTQVTVSS
Regarding B1, in the experiment with AAV8 [1], binding was put at a Kd of 83.6 pM, the koff amounted to 5e-06 s⁻¹ and the kon was found to be 59800 M⁻¹ s⁻¹. Also, in the experiment with AAV9, the Kd turned out to be 117 pM, the koff came out at 4.3e-06 s⁻¹ and the kon was 36900 M⁻¹ s⁻¹. In the experiment with AAV5, binding was put at a Kd of 318 pM, the koff amounted to 1.34e-05 s⁻¹ and the kon came out at 42100 M⁻¹ s⁻¹.

B2: A4-052 (VHH)
VHH: VQLQESGGGLVQPGGSLRLSCAASGSIFIINTMGWYRQAPGKQRELVAAVTRGGSTNYADSVKGRFTISRDNAKNTVYLQMNSLRPEDTAVYYCHVDEVRQSSWTTSNLWGQGTQVTVSS
B2 displayed a kon in the experiment with AAV8 [2] of 31800 M⁻¹ s⁻¹.
